Test results from ChEMBL document CHEMBL3526099, “Metabolism of triethylenetetramine and 1,12-diamino-3,6,9-triazadodecane by the spermidine/spermine-N(1)-acetyltransferase and thialysine acetyltransferase” (Drug Metab Dispos, 2013).

Substrate: NCCNCCNCCN
Test: not read

B1: Thialysine N-epsilon-acetyltransferase (Homo sapiens) (protein)
chain: MASVRIREAKEGDCGDILRLIRELAEFEKLSDQVKISEEALRADGFGDNPFYHCLVAEILPAPGKLLGPCVVGYGIYYFIYSTWKGRTIYLEDIYVMPEYRGQGIGSKIIKKVAEVALDKGCSQFRLAVLDWNQRAMDLYKALGAQDLTEAEGWHFFCFQGEATRKLAGK
  Km: 2500 µM
  Vmax: 3.96 µmol/min/mg
